The results in this text go back to patent US20210032329A1.

The Kd is the concentration at which binding is half-saturated. By koff is commonly meant the rate constant with which the complex falls apart. As a reminder, the kon is the second-order rate constant of association. The EC50 is the concentration needed to bring the measured effect to its halfway point.

In assay [1] the target is marmoset SEMA4D-His (marmoset). Nature of the assay: BIACORE; antibody captured with goat anti-human IgG Fc, marmoset SEMA4D-His as analyte.
Assay [2] has as its target marmoset SEMA4D-His (marmoset). The assay is described as follows: BIACORE; antibody captured with goat anti-human IgG Fc, marmoset SEMA4D-His as analyte (second row for this antibody). A general note: Surface plasmon resonance follows binding to a sensor surface in real time, without labels.
The target in assay [3] is cynomolgus monkey SEMA4D-His (cynomolgus monkey). The assay is described as follows: receptor blocking; antibody dilution series pre-incubated with SEMA4D-His, binding to 293PLXNB1 cells (Plexin B1) read by flow cytometry. Background: A flow cytometer gives signals particle by particle.
A further assay has as its target human SEMA4D-His (human) (UniProt Q92854). The assay is described as above.
In another assay the target is mouse SEMA4D-His (mouse) (UniProt O09126). The description is as above.
The target in the next assay is rat SEMA4D-His (rat). The assay is described as above.
rat SEMA4D-His (rat), sequence (chain, as listed by the source): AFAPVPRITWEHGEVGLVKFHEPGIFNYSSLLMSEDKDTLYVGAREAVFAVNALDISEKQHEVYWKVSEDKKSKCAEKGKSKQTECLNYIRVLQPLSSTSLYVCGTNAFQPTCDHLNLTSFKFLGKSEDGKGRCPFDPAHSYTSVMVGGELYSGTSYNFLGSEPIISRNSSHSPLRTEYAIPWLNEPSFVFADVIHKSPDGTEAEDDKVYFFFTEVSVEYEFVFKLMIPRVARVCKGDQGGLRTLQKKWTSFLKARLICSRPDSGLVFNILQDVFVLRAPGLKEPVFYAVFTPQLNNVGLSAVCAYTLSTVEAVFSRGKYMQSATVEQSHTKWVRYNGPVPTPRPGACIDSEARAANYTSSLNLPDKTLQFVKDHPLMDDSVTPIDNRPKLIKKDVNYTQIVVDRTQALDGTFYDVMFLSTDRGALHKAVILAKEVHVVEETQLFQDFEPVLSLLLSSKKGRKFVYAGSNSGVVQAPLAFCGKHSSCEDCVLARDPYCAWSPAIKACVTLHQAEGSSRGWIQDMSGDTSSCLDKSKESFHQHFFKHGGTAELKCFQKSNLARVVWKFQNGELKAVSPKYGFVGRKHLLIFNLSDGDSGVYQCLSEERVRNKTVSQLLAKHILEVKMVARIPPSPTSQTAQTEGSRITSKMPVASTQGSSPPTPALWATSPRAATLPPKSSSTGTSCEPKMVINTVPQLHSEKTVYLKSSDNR

marmoset SEMA4D-His (marmoset), sequence (chain, as listed by the source): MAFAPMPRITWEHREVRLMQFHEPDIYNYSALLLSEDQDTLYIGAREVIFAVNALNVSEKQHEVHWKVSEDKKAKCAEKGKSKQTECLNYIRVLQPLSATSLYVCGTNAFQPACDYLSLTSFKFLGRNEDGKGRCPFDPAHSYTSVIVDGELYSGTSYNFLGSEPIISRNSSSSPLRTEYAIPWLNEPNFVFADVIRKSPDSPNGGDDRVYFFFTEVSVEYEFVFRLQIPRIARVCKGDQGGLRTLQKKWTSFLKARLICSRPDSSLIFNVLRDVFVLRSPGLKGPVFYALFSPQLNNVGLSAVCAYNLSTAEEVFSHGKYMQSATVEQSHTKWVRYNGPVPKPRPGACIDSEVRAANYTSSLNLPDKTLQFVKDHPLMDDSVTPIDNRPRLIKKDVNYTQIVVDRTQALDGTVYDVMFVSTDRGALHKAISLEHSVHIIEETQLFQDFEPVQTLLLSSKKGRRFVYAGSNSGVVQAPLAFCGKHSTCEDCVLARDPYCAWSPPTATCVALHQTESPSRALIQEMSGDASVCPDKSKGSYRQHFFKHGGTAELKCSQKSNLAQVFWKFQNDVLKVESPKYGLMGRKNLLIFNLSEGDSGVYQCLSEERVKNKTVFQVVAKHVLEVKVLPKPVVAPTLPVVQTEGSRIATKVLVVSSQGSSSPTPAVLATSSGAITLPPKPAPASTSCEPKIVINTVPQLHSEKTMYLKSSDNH
human SEMA4D-His (human), sequence (Q92854 22-734 limits assumed): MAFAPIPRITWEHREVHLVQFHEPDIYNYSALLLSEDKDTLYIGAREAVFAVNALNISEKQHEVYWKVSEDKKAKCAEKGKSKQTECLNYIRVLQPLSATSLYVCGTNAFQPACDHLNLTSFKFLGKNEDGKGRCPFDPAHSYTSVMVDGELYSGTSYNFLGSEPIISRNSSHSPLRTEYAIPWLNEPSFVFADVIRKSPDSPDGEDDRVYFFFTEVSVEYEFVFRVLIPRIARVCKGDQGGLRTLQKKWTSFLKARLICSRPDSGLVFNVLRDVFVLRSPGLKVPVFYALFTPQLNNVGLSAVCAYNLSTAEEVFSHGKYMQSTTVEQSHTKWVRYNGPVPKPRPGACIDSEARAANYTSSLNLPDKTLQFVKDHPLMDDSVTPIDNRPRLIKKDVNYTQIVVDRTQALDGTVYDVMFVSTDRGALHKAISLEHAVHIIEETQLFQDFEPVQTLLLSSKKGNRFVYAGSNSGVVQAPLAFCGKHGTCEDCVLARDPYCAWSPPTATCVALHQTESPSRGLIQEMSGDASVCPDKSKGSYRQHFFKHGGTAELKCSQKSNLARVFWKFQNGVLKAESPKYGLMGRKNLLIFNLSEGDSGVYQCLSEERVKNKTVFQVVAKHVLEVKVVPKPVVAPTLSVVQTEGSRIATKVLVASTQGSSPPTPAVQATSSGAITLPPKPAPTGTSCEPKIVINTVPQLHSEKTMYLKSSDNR
mouse SEMA4D-His (mouse), sequence (O09126 24-733 limits assumed): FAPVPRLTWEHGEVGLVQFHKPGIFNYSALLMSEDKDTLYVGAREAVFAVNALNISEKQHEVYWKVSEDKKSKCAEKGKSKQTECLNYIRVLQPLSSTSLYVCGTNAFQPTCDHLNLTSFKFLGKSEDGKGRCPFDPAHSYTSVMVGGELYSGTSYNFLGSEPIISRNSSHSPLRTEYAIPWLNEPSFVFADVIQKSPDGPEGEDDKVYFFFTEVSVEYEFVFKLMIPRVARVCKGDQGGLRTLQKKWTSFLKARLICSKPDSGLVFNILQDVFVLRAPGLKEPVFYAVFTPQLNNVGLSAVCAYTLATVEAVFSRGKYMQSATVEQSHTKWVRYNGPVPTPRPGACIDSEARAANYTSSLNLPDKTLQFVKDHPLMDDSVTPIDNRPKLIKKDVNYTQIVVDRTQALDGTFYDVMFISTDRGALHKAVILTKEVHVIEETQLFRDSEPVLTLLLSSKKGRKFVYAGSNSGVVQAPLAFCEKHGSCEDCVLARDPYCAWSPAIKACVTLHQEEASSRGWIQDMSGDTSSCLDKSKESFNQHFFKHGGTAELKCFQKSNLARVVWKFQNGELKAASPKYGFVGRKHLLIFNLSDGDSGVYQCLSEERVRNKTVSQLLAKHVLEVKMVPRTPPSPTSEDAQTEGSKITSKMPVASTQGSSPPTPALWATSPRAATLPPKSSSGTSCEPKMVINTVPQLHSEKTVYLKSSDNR

B1: humanized MAb 2503 (VX15/2503) (antibody, INN chains, looked up, V domains shown)
VH: QVQLVQSGAEVKKPGSSVKVSCKASGYSFSDYYMHWVRQAPGQGLEWMGQINPTTGGASYNQKFKGKATITVDKSTSTAYMELSSLRSEDTAVYYCARYYYGRHFDVWGQGTTVTVSS
VL: DIVMTQSPDSLAVSLGERATINCKASQSVDYDGDSYMNWYQQKPGQPPKLLIYAASNLESGVPDRFSGSGSGTDFTLTISSLQAEDVAVYYCQQSNEDPYTFGQGTKLEIK
Turning to B1, the Ka in assay [1] was 2.06e+08 M⁻¹; in assay [2], 2.4e+08 M⁻¹. Moreover, the Kd was 4.86 nM in assay [1] and 4.17 nM in assay [2]. The figures for the dissociation rate constant (koff) in assay [1] and in assay [2] were 0.00118 s⁻¹ and 0.00126 s⁻¹, respectively. In addition, the kon in assay [1] was found to be 243000 M⁻¹ s⁻¹; in assay [2] it was 302000 M⁻¹ s⁻¹. Moreover, the EC50 in assay [3] came out at 0.5 nM; with human SEMA4D-His (human) it was 0.3 nM; with mouse SEMA4D-His (mouse), 0.4 nM; with rat SEMA4D-His (rat) it was 0.6 nM.
